According to PMC3923129:

Target: sigmaA-RNAP holoenzyme (housekeeping RNA polymerase) (Bacillus subtilis) (UniProt P20429+P37870+P37871+P06224)
Experiment: EMSA

sigmaA-RNAP holoenzyme (housekeeping RNA polymerase) (Bacillus subtilis), sequence (P20429 whole entry, chain 1 of 4): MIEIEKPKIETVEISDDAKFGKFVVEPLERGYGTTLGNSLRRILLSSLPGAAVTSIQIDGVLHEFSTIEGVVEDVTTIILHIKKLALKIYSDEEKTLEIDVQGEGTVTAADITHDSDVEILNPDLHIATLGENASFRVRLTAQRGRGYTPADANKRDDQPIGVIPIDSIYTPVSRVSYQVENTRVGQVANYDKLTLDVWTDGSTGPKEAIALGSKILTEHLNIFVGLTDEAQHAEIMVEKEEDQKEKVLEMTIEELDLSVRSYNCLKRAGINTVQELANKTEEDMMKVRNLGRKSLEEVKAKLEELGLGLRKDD
sigmaA-RNAP holoenzyme (housekeeping RNA polymerase) (Bacillus subtilis), sequence (P37870 whole entry, chain 2 of 4): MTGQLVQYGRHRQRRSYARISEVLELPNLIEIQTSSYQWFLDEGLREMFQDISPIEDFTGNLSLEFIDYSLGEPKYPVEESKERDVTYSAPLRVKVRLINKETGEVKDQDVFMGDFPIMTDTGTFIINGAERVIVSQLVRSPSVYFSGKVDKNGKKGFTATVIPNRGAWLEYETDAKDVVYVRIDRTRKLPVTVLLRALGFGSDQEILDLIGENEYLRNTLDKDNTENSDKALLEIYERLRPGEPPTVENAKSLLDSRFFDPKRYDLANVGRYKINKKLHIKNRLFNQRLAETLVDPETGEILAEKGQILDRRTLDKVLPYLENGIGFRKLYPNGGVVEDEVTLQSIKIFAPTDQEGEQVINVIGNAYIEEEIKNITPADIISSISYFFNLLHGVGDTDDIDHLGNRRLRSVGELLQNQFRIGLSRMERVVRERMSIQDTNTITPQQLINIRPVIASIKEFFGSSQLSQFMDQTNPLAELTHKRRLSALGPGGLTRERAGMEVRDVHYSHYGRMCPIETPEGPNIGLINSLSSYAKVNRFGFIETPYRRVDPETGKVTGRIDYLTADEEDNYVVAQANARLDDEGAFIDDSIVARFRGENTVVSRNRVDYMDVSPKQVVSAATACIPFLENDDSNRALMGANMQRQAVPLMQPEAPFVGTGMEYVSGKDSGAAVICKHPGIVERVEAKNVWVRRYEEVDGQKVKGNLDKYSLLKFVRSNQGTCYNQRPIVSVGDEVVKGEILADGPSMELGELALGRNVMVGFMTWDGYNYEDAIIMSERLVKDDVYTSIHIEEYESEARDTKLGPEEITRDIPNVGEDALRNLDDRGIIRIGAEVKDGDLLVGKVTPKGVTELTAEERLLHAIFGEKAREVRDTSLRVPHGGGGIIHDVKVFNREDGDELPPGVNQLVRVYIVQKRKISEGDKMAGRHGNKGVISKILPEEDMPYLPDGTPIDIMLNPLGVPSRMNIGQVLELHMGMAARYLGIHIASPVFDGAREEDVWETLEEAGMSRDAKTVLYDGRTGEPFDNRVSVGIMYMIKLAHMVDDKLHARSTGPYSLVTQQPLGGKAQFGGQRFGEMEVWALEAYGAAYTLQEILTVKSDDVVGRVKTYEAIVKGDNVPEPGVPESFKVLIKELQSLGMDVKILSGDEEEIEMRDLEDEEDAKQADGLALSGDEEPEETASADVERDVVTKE
sigmaA-RNAP holoenzyme (housekeeping RNA polymerase) (Bacillus subtilis), sequence (P37871 whole entry, chain 3 of 4): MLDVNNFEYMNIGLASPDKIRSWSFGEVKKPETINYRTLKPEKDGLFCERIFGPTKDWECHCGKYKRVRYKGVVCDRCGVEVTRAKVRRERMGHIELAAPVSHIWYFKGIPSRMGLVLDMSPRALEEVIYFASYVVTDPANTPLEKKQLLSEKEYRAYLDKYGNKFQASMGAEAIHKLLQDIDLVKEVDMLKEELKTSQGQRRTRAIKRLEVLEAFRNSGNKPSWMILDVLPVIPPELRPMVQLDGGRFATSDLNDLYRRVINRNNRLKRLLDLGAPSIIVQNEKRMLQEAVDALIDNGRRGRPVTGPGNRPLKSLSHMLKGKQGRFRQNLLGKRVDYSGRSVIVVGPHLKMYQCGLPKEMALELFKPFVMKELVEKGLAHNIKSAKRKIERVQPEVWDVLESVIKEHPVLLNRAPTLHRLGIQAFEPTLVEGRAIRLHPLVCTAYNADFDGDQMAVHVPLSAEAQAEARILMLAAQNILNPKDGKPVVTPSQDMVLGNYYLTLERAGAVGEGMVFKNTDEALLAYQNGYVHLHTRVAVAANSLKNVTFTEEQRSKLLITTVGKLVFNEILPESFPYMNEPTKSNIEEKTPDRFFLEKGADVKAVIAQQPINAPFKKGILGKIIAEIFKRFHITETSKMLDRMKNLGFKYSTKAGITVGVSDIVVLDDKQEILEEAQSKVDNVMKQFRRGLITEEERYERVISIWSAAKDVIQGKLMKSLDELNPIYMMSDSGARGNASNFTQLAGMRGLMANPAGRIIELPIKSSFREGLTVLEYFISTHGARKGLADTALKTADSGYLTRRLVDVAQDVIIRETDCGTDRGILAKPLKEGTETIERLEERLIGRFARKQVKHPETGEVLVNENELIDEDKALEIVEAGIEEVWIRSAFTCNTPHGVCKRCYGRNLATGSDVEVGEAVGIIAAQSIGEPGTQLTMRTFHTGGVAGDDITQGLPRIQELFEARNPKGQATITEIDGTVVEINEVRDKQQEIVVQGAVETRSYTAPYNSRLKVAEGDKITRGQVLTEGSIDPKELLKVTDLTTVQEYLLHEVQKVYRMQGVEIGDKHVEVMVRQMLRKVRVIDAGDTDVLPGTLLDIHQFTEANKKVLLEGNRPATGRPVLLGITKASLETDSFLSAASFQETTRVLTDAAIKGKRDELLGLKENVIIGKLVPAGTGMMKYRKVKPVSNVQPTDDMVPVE
sigmaA-RNAP holoenzyme (housekeeping RNA polymerase) (Bacillus subtilis), sequence (P06224 whole entry, chain 4 of 4): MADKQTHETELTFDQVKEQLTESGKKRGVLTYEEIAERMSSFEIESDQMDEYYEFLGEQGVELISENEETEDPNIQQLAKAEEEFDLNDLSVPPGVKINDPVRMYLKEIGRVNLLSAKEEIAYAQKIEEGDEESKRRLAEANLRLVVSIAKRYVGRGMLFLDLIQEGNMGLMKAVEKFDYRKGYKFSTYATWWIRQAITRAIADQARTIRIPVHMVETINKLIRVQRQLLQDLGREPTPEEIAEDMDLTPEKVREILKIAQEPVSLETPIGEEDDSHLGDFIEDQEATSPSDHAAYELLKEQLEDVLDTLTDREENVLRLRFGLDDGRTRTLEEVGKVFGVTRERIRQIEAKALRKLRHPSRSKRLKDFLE

Substance | Kd [nM]
6S-2 RNA | 135
6S-1 RNA | 100
